Assay results: PMC6850040 (Iubmb Life, 2019)
Changes are numbered by the printed parent chain.

Columns and labels:
OxDC [1] = target: T1, OxDC (Bacillus subtilis, UniProt O34714, S161D/E162S/N163S/S164N); test: turbidity at […] nm, protection from aggregation; format: binding; settings: 50 mM sodium glyoxylate; 16 mM Tris-HCl pH 7.2, 140 mM NaCl, 25 C; substrate analogue, active site (indirect evidence)
T1 construct: synthetic cDNA (GeneScript) in pET24a(+), thrombin site and C-terminal 6xHis; expressed in E. coli; two-step purification, untagged enzyme used; homohexamer 264 kDa, Mn-dependent

OxDC [2] = target: OxDC (Bacillus subtilis, UniProt O34714); test: oxalate decarboxylase activity, Michaelis-Menten fit; format: biochemical; settings: pH 4.2; 140 mM NaCl; no o-phenylenediamine; potassium oxalate 0.1-250 mM
[3] = target: the molecule itself; test: dynamic light scattering; 0.5 mg/mL enzyme, 25°C, 52 mM sodium acetate pH 4.2, 140 mM NaCl; self-association (hexamer)
purified protein = substrate: O=C(O)C(=O)O; test: purified protein; settings: pH 4.2, 140 mM NaCl, potassium oxalate 10-200 mM

Sequence of OxDC (Bacillus subtilis, UniProt O34714) (O34714 whole entry): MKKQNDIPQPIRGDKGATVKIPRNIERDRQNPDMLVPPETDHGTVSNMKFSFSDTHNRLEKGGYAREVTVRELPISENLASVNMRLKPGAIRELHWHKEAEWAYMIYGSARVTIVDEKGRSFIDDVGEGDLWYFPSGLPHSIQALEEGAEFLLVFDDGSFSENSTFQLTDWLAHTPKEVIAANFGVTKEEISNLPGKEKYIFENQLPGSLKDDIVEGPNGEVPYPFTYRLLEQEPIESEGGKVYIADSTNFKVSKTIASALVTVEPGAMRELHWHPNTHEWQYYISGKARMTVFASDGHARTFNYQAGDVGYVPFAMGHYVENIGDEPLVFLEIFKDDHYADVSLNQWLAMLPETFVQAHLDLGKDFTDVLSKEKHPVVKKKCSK

**Q.** `O=CC(=O)O` [sodium glyoxylate] was tested. Which “turbidity at 600 nm, protection from aggregation” value (OxDC [1]) did it give?
**A.** Its value is “We found that NaGlyox prevents aggregation”.

**Q.** How did the Km (OxDC [2]) turn out when `O=C(O)C(=O)O` [oxalate] was run?
**A.** The Km was 8 ± 0.8 mM.

B1: OxDC‐DSSN (OxDC bearing the Ser161Asp, Glu162Ser, Asn163Ser, Ser164Asn mutations) (enzyme, Bacillus subtilis)
chain: MKKQNDIPQPIRGDKGATVKIPRNIERDRQNPDMLVPPETDHGTVSNMKFSFSDTHNRLEKGGYAREVTVRELPISENLASVNMRLKPGAIRELHWHKEAEWAYMIYGSARVTIVDEKGRSFIDDVGEGDLWYFPSGLPHSIQALEEGAEFLLVFDDGSFDSSNTFQLTDWLAHTPKEVIAANFGVTKEEISNLPGKEKYIFENQLPGSLKDDIVEGPNGEVPYPFTYRLLEQEPIESEGGKVYIADSTNFKVSKTIASALVTVEPGAMRELHWHPNTHEWQYYISGKARMTVFASDGHARTFNYQAGDVGYVPFAMGHYVENIGDEPLVFLEIFKDDHYADVSLNQWLAMLPETFVQAHLDLGKDFTDVLSKEKHPVVKKKCSK
notes: Oxalate decarboxylase (OxDC) of Bacillus subtilis with four substitutions in the lid; made by site-directed mutagenesis of pET24a-OxDC (thrombin cleavage site and 6xHis tag at the C-terminus); The PDB entries are of the wild-type parent; source: two-step purification giving untagged protein; not shown: His6, C-terminal, cleaved
**Q.** How did the “stoichiometry N” value [3] turn out when B1 was run?
**A.** The value was 6.

**Q.** And the Km (purified protein)?
**A.** Its Km is 0.30 ± 0.07 mM.

**Q.** And the Vmax (purified protein)?
**A.** Its Vmax is 2 µmol/min/mg.

**Q.** What about the kcat (purified protein) of the same molecule?
**A.** The kcat was 1.4 s⁻¹.

B2: Oxalate decarboxylase (OxDC) from Bacillus subtilis, wild type (enzyme)
chain: B1 chain with D161S, S162E, S163N, N164S
notes: Oxalate decarboxylase (OxDC) of Bacillus subtilis; cDNA with a thrombin cleavage site and a 6xHis tag at the C-terminus in pET24a(+); homohexamer of 264 kDa; Residues of the thrombin site may remain at the C-terminus after cleavage; Purification details are in the Supporting Information; also called wild‐type OxDC; source: two-step purification giving untagged protein; not shown: His6, …
**Q.** B2 was tested. Which “stoichiometry N” value [3] did it give?
**A.** Its value is 6.
